This passage reports Kd, GFP fluorescence intensity and GFP fluorescence intensity per pixel results from PMC6550315.

Like-named read-outs stand apart in the source and are kept apart here.

Experiment [1] deals with Kif7DM (dimeric, non GFP-tagged Kif7, aa. 1–543), held on an anti-penta-HIS biosensor (human) (UniProt Q2M1P5). As to the kind of experiment: BLI. (In general: In BLI a coated tip is dipped into the sample, and binding shifts an interference pattern.)
Experiment [2] has the same target. In words: BLI. This is another data set of the same source.
Experiment [3] has the same target. As to the kind of experiment: BLI. This is another data set of the same source.
The target of experiment [4] is GTP-polymerized Taxol-stabilized microtubules (bovine tubulin) (bovine) (UniProt Q6B856). As to the kind of experiment: co-sedimentation.
The target in experiment [5] is GMPCPP-stabilized microtubules (GMPCPP-bound microtubule seeds) (bovine (lab-purified from bovine brain; Cytoskeleton tubulin used interchangeably)) (UniProt Q6B856). In words: TIRF microscopy.
In experiment [6] the target is GTPγS microtubule segment (bovine (lab-purified from bovine brain; Cytoskeleton tubulin used interchangeably)) (UniProt Q6B856). In words: TIRF microscopy.
The target in experiment [7] is GMPCPP-stabilized microtubules (GMPCPP-bound microtubule seeds) (bovine (lab-purified from bovine brain; Cytoskeleton tubulin used interchangeably)) (UniProt Q6B856). In words: TIRF microscopy. The source holds these as a separate data set.
Experiment [8] deals with GMPCPP+GDP microtubule cap (bovine (lab-purified from bovine brain; Cytoskeleton tubulin used interchangeably)) (UniProt Q6B856). As to the kind of experiment: TIRF microscopy.
Experiment [9] concerns the target GDP-tubulin microtubule segment (GTP►GDP growth) (bovine (lab-purified from bovine brain; Cytoskeleton tubulin used interchangeably)) (UniProt Q6B856). In words: TIRF microscopy.
The target in experiment [10] is GTP-polymerized Taxol-stabilized microtubules (bovine tubulin) (bovine) (UniProt Q6B856). As to the kind of experiment: co-sedimentation. The source holds these as a separate data set.
For experiment [11], the target named is GMPCPP-stabilized microtubules (GMPCPP-bound microtubule seeds) (bovine (lab-purified from bovine brain; Cytoskeleton tubulin used interchangeably)) (UniProt Q6B856). In words: TIRF microscopy. The source holds these as a separate data set.
In experiment [12] the target is GMPCPP+GDP microtubule cap (bovine (lab-purified from bovine brain; Cytoskeleton tubulin used interchangeably)) (UniProt Q6B856). In words: TIRF microscopy. This is another data set of the same source.
Experiment [13] has as its target GDP-tubulin microtubule segment (GTP►GDP growth) (bovine (lab-purified from bovine brain; Cytoskeleton tubulin used interchangeably)) (UniProt Q6B856). In words: TIRF microscopy. This is another data set of the same source.
Experiment [14] concerns the target GMPCPP-stabilized microtubules (GMPCPP-bound microtubule seeds) (bovine (lab-purified from bovine brain; Cytoskeleton tubulin used interchangeably)) (UniProt Q6B856). As to the kind of experiment: TIRF microscopy. The source holds these as a separate data set.
Experiment [15] concerns the target GMPCPP+GDP microtubule cap (bovine (lab-purified from bovine brain; Cytoskeleton tubulin used interchangeably)) (UniProt Q6B856). In words: TIRF microscopy. This is another data set of the same source.
Experiment [16] deals with GDP-tubulin microtubule segment (GTP►GDP growth) (bovine (lab-purified from bovine brain; Cytoskeleton tubulin used interchangeably)) (UniProt Q6B856). As to the kind of experiment: TIRF microscopy. The source holds these as a separate data set.
For experiment [17], the target named is GMPCPP-stabilized microtubules (GMPCPP-bound microtubule seeds) (bovine (lab-purified from bovine brain; Cytoskeleton tubulin used interchangeably)) (UniProt Q6B856). In words: TIRF microscopy. This is another data set of the same source.
Experiment [18] concerns the target GTP-polymerized Taxol-stabilized microtubules (bovine tubulin) (bovine) (UniProt Q6B856). In words: co-sedimentation. The source holds these as a separate data set.
Experiment [19] addresses GMPCPP-stabilized microtubules (GMPCPP-bound microtubule seeds) (bovine (lab-purified from bovine brain; Cytoskeleton tubulin used interchangeably)) (UniProt Q6B856). In words: TIRF microscopy. This is another data set of the same source.
In experiment [20] the target is GMPCPP+GDP microtubule cap (bovine (lab-purified from bovine brain; Cytoskeleton tubulin used interchangeably)) (UniProt Q6B856). In words: TIRF microscopy. This is another data set of the same source.
Experiment [21] deals with GDP-tubulin microtubule segment (GTP►GDP growth) (bovine (lab-purified from bovine brain; Cytoskeleton tubulin used interchangeably)) (UniProt Q6B856). In words: TIRF microscopy. The source holds these as a separate data set.
The target in experiment [22] is GTP-polymerized Taxol-stabilized microtubules (bovine tubulin) (bovine) (UniProt Q6B856). In words: co-sedimentation. The source holds these as a separate data set.

On to “soluble tubulin (α-β-tubulin heterodimer) (from UniProt Q6B856 1-445) (complex)”, for which the Kd in experiment [1] came to 8.1 µM; in [2] it was 4.98 µM; in [3], 1.64 µM.

In turn, “Kif7_(DM-L8)^KHC-GFP (Kif7 1–543 with loop L8 replaced by kinesin-1 L8) (from UniProt Q2M1P5 1-543) (domain or fragment)” gave an equilibrium dissociation constant (Kd) in experiment [4] of 0.85 µM.

B1: Kif7DM-GFP (dimeric Kif7, aa. 1–543, C-terminal GFP) (domain or fragment)
chain: MGLEAQRLPGAEEAPVRVALRVRPLLPKELLHGHQSCLQVEPGLGRVTLGRDRHFGFHVVLAEDAGQEAVYQACVQPLLEAFFEGFNATVFAYGQTGSGKTYTMGEASVASLLEDEQGIVPRAMAEAFKLIDENDLLDCLVHVSYLEVYKEEFRDLLEVGTASRDIQLREDERGNVVLCGVKEVDVEGLDEVLSLLEMGNAARHTGATHLNHLSSRSHTVFTVTLEQRGRAPSRLPRPAPGQLLVSKFHFVDLAGSERVLKTGSTGERLKESIQINSSLLALGNVISALGDPQRRGSHIPYRDSKITRILKDSLGGNAKTVMIACVSPSSSDFDETLNTLNYASRAQNIRNRATVNWRPEAERPPEETASGARGPPRHRSETRIIHRGRRAPGPATASAAAAMRLGAECARYRACTDAAYSLLRELQAEPGLPGAAARKVRDWLCAVEGERSALSSASGPDSGIESASVEDQAAQGAGGRKEDEGAQQLLTLQNQVARLEEENRDFLAALEDAMEQYKLQSDRLREQQEEMVELRLRLELVRP
Molecule B1 returned a GFP fluorescence intensity at curvature |κ0|, 10 nM Kif7DM-GFP in [5] of 164. Also, in experiment [5], the GFP fluorescence intensity at curvature |κ0|, 50 nM Kif7DM-GFP worked out at 278. This molecule had a GFP fluorescence intensity at curvature |κ1|, 10 nM Kif7DM-GFP in [5] of 168. Also, the GFP fluorescence intensity at curvature |κ1|, 50 nM Kif7DM-GFP in experiment [5] is 285. For the same molecule, in experiment [5], the GFP fluorescence intensity at curvature |κ2|, 10 nM Kif7DM-GFP was found to be 168. For the same molecule, in experiment [5], the GFP fluorescence intensity at curvature |κ2|, 50 nM Kif7DM-GFP stood at 280. In addition, the GFP fluorescence intensity at curvature |κ3|, 10 nM Kif7DM-GFP in experiment [5] amounted to 164. Moreover, the GFP fluorescence intensity at curvature |κ3|, 50 nM Kif7DM-GFP in [5] turned out to be 283. Moreover, the GFP fluorescence intensity per pixel in [5] was determined as 218; in [6], 511; in experiment [7] it was 202; in experiment [8], 80.8; in [9], 14.1; in experiment [11] it was 53. The GFP fluorescence intensity per pixel in [12] was 37.1; in experiment [13], 8.6; in [14], 693; in [15], 401; in [16], 216; in [17] it was 836. The GFP fluorescence intensity per pixel amounted to 592 in experiment [19], 338 in experiment [20] and 208 in [21]. For the same molecule, the Kd worked out at 0.78 µM in experiment [10], 0.54 µM in experiment [4], 0.81 µM in [18] and 0.43 µM in [22].

A word on the Kd: it is a measure of binding affinity in units of concentration. High values mean weaker binding, low ones tighter binding.
